In paper PMC12024540, “Peptide-Based Regulation of TNF-α-Mediated Cytotoxicity” (Biomolecules, 2025):

Test system: caspase-3 and caspase-7 activities in L929 cells
Test: Caspase-Glo 3/7 apoptosis assay on TNF-α-stimulated L929 cells
Type: cell-based, mouse
Conditions: at 10 nM and 100 nM with TNF-α 1 ng/mL
Experimental: Apoptosis was detected by measuring caspase-3 and caspase-7 activities with the Promega Caspase-Glo 3/7 Assay Kit. A total of 1.5 × 10^4 cells were seeded onto opaque 96-well tissue culture plates. After 24 ± 2 h of incubation, cells were stimulated with the same concentration of actinomycin D and TNF-α with different peptide concentrations. After 4 h of incubation in 5% CO2 at 37 °C, freshly prepared caspase 3/7 reagent was added to each well, followed by incubation for 1 h at room temperature. Luminescence was measured using a plate reader (CLARIOstar Plus, BMG Labtech, Ortenberg, Germany). Fold change was calculated from the ratio of luminescence of cell control to that of TNF-α-treated cells.

B1: TNFR1: Human TNFR1 (soluble) recombinant protein applied with TNF-α in the caspase 3/7 assay (protein)
chain: SVCPQGKYIHPQNNSICCTKCHKGTYLYNDCPGPGQDTDCRECESGSFTASENHLRHCLSCSKCRKEMGQVEISSCTVDRDTVCGCRKNQYRHYWSENLFQCFNCSLCLNGTVHLSCQEKQNTVCTCHAGFFLRENECVS
modifications: fluorescent label from the Monolith Protein Labeling Kit RED-NHS 2nd Generation (labelled target in MST)
notes: Human TNFR1 (soluble) recombinant protein applied with TNF-α in the caspase 3/7 assay
In the case of B1, the “effect on caspase 3/7 activity” value is reported as “significantly reduced caspase 3/7 activity”.
